We go through five molecules from patent publication US20110086026A1 (ROCHE PALO ALTO, published 2011).

Assay [1] has as its target T1, human IL-13Rα1 (human, UniProt P78552 22-427).
T1 sequence (looked up): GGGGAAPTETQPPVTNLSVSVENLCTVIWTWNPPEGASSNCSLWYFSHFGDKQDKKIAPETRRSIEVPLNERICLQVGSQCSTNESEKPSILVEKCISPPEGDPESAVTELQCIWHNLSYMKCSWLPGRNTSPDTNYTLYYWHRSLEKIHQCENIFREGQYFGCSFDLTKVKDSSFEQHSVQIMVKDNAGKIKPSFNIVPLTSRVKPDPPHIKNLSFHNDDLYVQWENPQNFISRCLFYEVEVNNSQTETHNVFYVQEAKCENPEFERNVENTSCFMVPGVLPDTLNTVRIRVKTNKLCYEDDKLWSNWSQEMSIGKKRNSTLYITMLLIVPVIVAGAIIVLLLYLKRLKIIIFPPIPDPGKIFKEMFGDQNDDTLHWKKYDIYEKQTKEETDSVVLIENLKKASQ
The experiment in a line: cell-based or functional assay.

In assay [2] the target is Cynomolgus IL-13Rα1 expressed in transfected Ba/F3 cells (Cynomolgus). The experiment in a line: FACS, transfected against parental Ba/F3 cells, 10 µg/ml.
The target is the same in assay [3]. The experiment in a line: FACS on Ba/F3 cells transfected with Cynomolgus IL-13Rα1, 10 µg/ml.
Assay [4] deals with T1, human IL-13Rα1. The experiment in a line: displacement of 125I-IL-13 on CHO cells expressing human IL-13Rα1 and IL-4Rα. For orientation: Loss of bound radioactivity is the signal in a displacement assay; it reports binding, not function.
Assay [5] concerns the target Chimeric protein murine IL-13Rα1:hFc (R&D Systems, UK) (mouse) (UniProt O09030). The experiment in a line: ELISA, immobilized murine IL-13Rα1:hFc, detection with anti-goat IgG-POD, OD 405nm. (In general: An ELISA detects its analyte on a solid surface through an enzyme-linked reagent.)
The target of assay [6] is extracellular domain of IL-13Rα1 (R&D Systems, UK) (human) (UniProt P78552). The experiment in a line: ELISA, immobilized extracellular domain of human IL-13Rα1, detection with anti-goat IgG-POD, OD 405nm-492nm.
Assay [7] addresses Cynomolgus IL-13Rα1 expressed in transfected Ba/F3 cells (Cynomolgus). The experiment in a line: FACS, transfected against parental Ba/F3 cells; secondary reagent only. A general note: A flow cytometer gives signals particle by particle.
Assay [8] shares this target. The experiment in a line: FACS on Ba/F3 cells transfected with Cynomolgus IL-13Rα1; secondary reagent only.
For assay [9] the target is unchanged. The experiment in a line: FACS, transfected against parental Ba/F3 cells; negative control.
For assay [10] the target is unchanged. The experiment in a line: FACS on Ba/F3 cells transfected with Cynomolgus IL-13Rα1; negative control.
Assay [11] concerns the target T2, extracellular domain of hIL-13Rα1 cleaved from hIL-13Rα1:hFc chimeric protein (human, UniProt P78552 22-343).
T2 construct: extracellular domain; also called Cleaved hIL-13Rα1 molecules (MW 40 kDa)
T2 sequence (looked up): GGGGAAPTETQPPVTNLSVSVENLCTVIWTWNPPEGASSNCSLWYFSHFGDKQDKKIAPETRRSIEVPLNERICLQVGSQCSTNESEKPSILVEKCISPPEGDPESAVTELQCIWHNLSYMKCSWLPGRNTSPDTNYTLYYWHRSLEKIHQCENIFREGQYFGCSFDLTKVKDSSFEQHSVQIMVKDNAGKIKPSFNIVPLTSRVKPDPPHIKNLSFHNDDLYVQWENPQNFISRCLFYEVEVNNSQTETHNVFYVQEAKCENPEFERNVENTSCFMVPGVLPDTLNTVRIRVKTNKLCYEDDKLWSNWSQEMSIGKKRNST
The experiment in a line: SPR Biacore 3000, C1 chip, HuMab captured by anti-hFcγ, cleaved hIL-13Rα1 as analyte, 1:1 Langmuir model. The procedure:
For interaction analysis, a Biacore 3000 instrument was used. Running and reaction buffer was HBS-P (10 mM HEPES, 150 mM NaCl, 0.005% polysurfactant P, pH 7.4) at 25° C. Capturing antibody molecules (anti-hFcγ) were amine-coupled at a concentration of 100 μg/ml at a flow rate of 5 μl/min for 20 minutes. HuMabs were injected at concentrations of 10 μg/ml at a flow rate of 10 μl/min for 30 seconds. Cleaved hIL-13Rα1 molecules (MW 40 kDa) were injected for 200 seconds at seven concentrations between 1.56 nM and 100 nM and washed with HBS-P for five minutes. Regeneration of the surface was accomplished by two injections of 100 mM HCl for 1 min each at a flow rate of […]. The chip, assay format and sequence of injections and kinetic data correspond to the description in the following Table 3. Kinetic data were calculated by fitting kinetic data to a 1:1 Langmuir binding model.

Assay [12] deals with T2, extracellular domain of hIL-13Rα1 …. The experiment in a line: SPR Biacore 3000, CM5 chip, HuMab captured by anti-hFcγ, cleaved hIL-13Rα1 as analyte, bivalent analyte model. The procedure: (§1) In these experiments, the affinity of the original IgG1 derived from hybridoma was compared with the affinities of the recombinant variant IgG1-Ala-Ala. For interaction analysis, a Biacore 3000 instrument was used. Running and reaction buffer was HBS-P (10 mM HEPES, 150 mM NaCl, 0.005% polysurfactant P, pH 7.4) at 25° C. Capturing antibody molecules (anti-hFcγ) were amine-coupled at a concentration of 20 μg/ml at a flow rate of 5 μl/min for 20 minutes. HuMabs were injected at concentrations of 10 μg/ml at a flow rate of 10 μl/min for 1 minute. Cleaved hIL-13 Rα1 molelcules (analyte) were injected for five minutes at eight concentrations between 1.56 nM and 200 nM and washed with HBS-P for five minutes. Regeneration of the surface was accomplished by two injections of 100 mM HCl for 1 min each. The chip, assay format and sequence of injections and kinetic data correspond to the description in Table 4. Kinetic data were calculated by fitting kinetic data to a bivalent analyte binding model.

Assay [13] shares this target. The experiment in a line: SPR Biacore 3000, CM5 chip, HuMab captured by anti-hFcγ, cleaved hIL-13Rα1 as analyte, bivalent analyte model (ka1). The procedure: as §1
The target is the same in assay [14]. The experiment in a line: SPR Biacore 3000, CM5 chip, HuMab captured by anti-hFcγ, cleaved hIL-13Rα1 as analyte, bivalent analyte model (kd1). The procedure: as §1

Chain of Chimeric protein murine IL-13Rα1:hFc (R&D Systems, UK) (mouse) (O09030 26-340, change not shown): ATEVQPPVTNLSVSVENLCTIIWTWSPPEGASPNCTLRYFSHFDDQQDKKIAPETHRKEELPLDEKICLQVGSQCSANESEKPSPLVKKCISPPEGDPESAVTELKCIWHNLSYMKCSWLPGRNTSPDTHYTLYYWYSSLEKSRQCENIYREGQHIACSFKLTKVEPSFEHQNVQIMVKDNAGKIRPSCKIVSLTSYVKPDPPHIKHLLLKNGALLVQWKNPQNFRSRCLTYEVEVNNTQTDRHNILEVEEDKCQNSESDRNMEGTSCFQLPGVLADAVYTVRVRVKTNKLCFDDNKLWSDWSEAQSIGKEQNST

In assay [1], “polyclonal goat anti-hIL-13Rα1 antibody AF152 (R&D Systems)” returned an IC50, IL-13-induced Stat-6 phosphorylation in BSMC of 18.6 nM; an IC50, TF-1 proliferation in response to IL-13 of 13.5 nM; an IC50 for IL-4-induced TF-1 proliferation of 74.4 nM; an IC50 for inhibiting of CD23 upregulation on B-lymphocytes (IL-13 induced) of 13.6 nM. For the same molecule, in assay [1], the IC50 for inhibition of IL-13 induced CD23 upregulation on human monocytes was found to be 62.9 nM and the average IC50, eotaxin release of HFL-1 cells in response to IL-13 stood at 11.5 nM. Also, the Fold Increase in MFI in the presence of Cyno IL-13Rα1 in assay [2] turned out to be 18. This molecule also returned an MFI Ba/F3 Cyno IL-13Rα1 in assay [3] of 21.2 MFI. For the same molecule, in assay [4], the half-maximal inhibitory concentration (IC50) (in general, the concentration needed to halve the response being measured) was found to be 84.8 nM. Moreover, the 50% effective concentration (EC50 (read off the curve)) (usually the concentration giving half of the maximal effect) in assay [5] worked out at 0.2 nM. The same molecule yielded a concentration giving a half-maximal response (EC50 (read off the curve)) in assay [6] of 0.6 nM.
Turning to Anti human IgG-FITC only (antibody), the Fold Increase in MFI in the presence of Cyno IL-13Rα1 in [7] came out at 2.2. Besides, the MFI Ba/F3 Cyno IL-13Rα1 in assay [8] worked out at 5.5 MFI.
On to Normal goat IgG (antibody), for which the Fold Increase in MFI in the presence of Cyno IL-13Rα1 in assay [9] was 2.4. Further, the MFI Ba/F3 Cyno IL-13Rα1 in assay [10] was found to be 5.7 MFI.
For Normal human IgG1 (Nordic) (antibody) the same measures were 6.7 and 10.2 MFI.

B1: LC5002-005, mutant L234A; L235A (antibody, V domains shown)
VH: EVQVLDSGGGLVQPGGSLRLSCTASGFTFRLYTMSWVRQTPGRGLEWVSGISGSGLSTYFADSVKGRFTISRDNSKNTVYLQMNSLRAEDTAVYYCAKEGDWIYFDSWGQGTLVIVSS
VL: DIQMTQSPSSLSASVGDRVTITCRASQGISSWLAWYQQKPEKAPKSLIYAASSLQSGVPSRFSGSGSGTDFTLTISSLQPEDFATYYCQQYNSHPPTFGQGTKLEIKR
notes: Recombinant IgG1 variant; also called IgG1 ala-ala LC5002-005; recombinant variant IgG1-Ala-Ala
With B1, the Kd in assay [11] was 0.21 nM; in assay [12], 2.8 nM. Also, the koff (usually the first-order rate constant of dissociation) in assay [11] was 0.00029 s⁻¹; in assay [14], 0.00042 s⁻¹. In addition, the results for the on-rate constant (kon) in assay [11] and in [13] were 1.4e+06 M⁻¹ s⁻¹ and 153000 M⁻¹ s⁻¹, respectively.
